Test results from patent US20230390371A1, “ANTI-TUMOR IMMUNITY INDUCES THE PRESENTATION OF ABERRANT PEPTIDES” (STICHTING HET NEDERLANDS KANKER INSTITUUT-ANTONI VAN …, priority 2020, published 2023).

Columns and labels:
[1] = test system: A375 cells expressing H2-Kb; test: H2-Kb-bound SIINFEKL presentation from V5-ATF4(1-63)-tGFP-SIINFEKL reporters; assay type: cell-based, human; details: IFNγ treatment
Excerpt: FIG. 4: Aberrant frameshifted peptides are detected in full proteomes, are presented on HLA class I molecules, and induce peptide-specific T cell response. • (a) Gene set enrichment analysis (GSEA) based depiction of the proteomics data showing the induction of the IFN response and HLA genes following IFN treatment of MD55A3 cells. (b) A volcano plot showing differentially identified proteins as detected by 2D LC-MS/MS on lysates of MD55A3 cells expressing the V5-ATF4(1-63)-tGFP +1 out-of-frame construct. The red arrowhead indicates a peptide identified in the full proteome that corresponds to tGFP that could only have arisen from a frameshifting event. (c) Same analysis as panel b, but for the tryptophan-associated aberrant peptides identified to be reproducibly present in either IFNγ-treated or control conditions. […] (d) Bar graph depicting the median fluorescence intensity (MFI) of H2-Kb-bound SIINFEKL peptides in A375 cells expressing H2-Kb in combination with in-frame (Frame) or +1 out-of-frame (+1) V5-ATF4(1-63)-tGFP-SIINFEKL reporters. […] The panel presents 12 frameshifted peptides detected in the immuno-peptidomics mass spectrometry data of IFNγ and tryptophan deprived (mTRP) samples, which were not detected in the untreated controls. A subset of these were also detected in the fresh tumor metastases (mets) samples of the same patient (MD55). […]

[2] = test system: MD55A3 cells expressing the out-of-frame tGFP+1 reporter gene; test: 2D-LC MS/MS full proteome, out-of-frame tGFP+1 reporter; assay type: cell-based, human; details: IFNγ-treated vs control MD55A3 cells, +1 out-of-frame tGFP
Protocol: For deeper proteome coverage in search of IFNγ-induced frameshifts, IFNγ- or mock treated melanoma cells were lysed and digested as described above, after which dried digests were subjected to basic reversed-phase (HpH-RP) high-performance liquid chromatography for offline peptide fractionation. 250 μg peptides were reconstituted in 95% 10 mM ammonium hydroxide (NH4OH, solvent A)/5% (90% acetonitrile (ACN)/10 mM NH4OH, solvent B) and loaded onto a Phenomenex Kinetex EVO C18 analytical column (150 mm×2.1 mm, particle size 5 μm, 100 Å pores) coupled to an Agilent 1260 HPLC system equipped with a fraction collector. […] All fractions were analyzed by nanoLC-MS/MS on an Orbitrap Fusion Tribrid mass spectrometer equipped with an Easy-nLC1000 system (Thermo Scientific) as described previously^72. […]
Further, the MS data was analyzed by MaxQuant (version 1.6.0.16)74. […] The in-frame protein expression data was further normalized and analyzed using DEP^76, For the frame-shift proteome analysis, the MS data was analyzed by MaxQuant (version 1.6.0.16)^74 with LFQ normalization, and then was scanned against the trans-frame polypeptide database together with the SWISSPROT proteins with Evidence level of 1. […] Only the peptides reproducibly detected across replicates were retained for further analysis, and the list included reverse peptide hits (n=41) (FIG. 4c). […]

B1: IFNγ: interferon gamma (PeproTech), used at 250 U/mL (protein, UniProt P01579 24-161, looked up)
Interferon gamma: QDPYVKEAENLKKYFNAGHSDVADNGTLFLGILKNWKEESDRKIMQSQIVSFYFKLFKNFKDDQSIQKSVETIKEDMNVKFFNSNKKKRDDFEKLTNYSVTDLNVQRKAIHELIQVMAELSPAAKTGKRKRSQMLFRG
- presentation of +1 out-of-frame SIINFEKL peptide ([1]; +1 out-of-frame reporter, IDO1-dependent): strongly stimulated
- presentation of in-frame SIINFEKL peptide ([1]; in-frame reporter, IDO1-independent): mildly induced
- induction of tGFP reporter peptide expression [2]: > 30 fold
